Laboratory results published in patent US20140328762A1 (published 2014).

Tests used:
JunLZ-Sb3b5 beacon = JunLZ-Sb3b5 beacon (UniProt P0AEX9 27-392 = MBP); assay: fluorescence screening assay (FIG. 11)
Procedure: (§1) The graphs show a comparison of binding-induced fluorescence enhancement of JunLZ beacons. Concentration for all beacons is 1.0 and concentration of FosLZ or scrFosLZ is 10.0 μM. The assay was carried out in 0.1 M PBS, pH7.2 at room temperature. […] Numbers above the curves represent signal to noise ratios calculated from the maxim emission values that centered around 585 nm.
(§2) The purified fusion proteins were used directly without removing the MBP fusion partner. To prepare the beacons, TAMRA fluorophores were attached to the fusion proteins via the maleimide chemistry.

JunLZ-Sb1b4 beacon = JunLZ-Sb1b4 beacon (UniProt P0AEX9 27-392 = MBP); assay: fluorescence screening assay (FIG. 11)
Procedure: as §1, §2

JunLZ-Sb1b3 beacon = JunLZ-Sb1b3 beacon (UniProt P0AEX9 27-392 = MBP); assay: fluorescence screening assay (FIG. 11)
Procedure: as §1, §2

JunLZ-Lb1b4 beacon = JunLZ-Lb1b4 beacon (UniProt P0AEX9 27-392 = MBP); assay: fluorescence emission screening (FIG. 11)
Procedure: as §1, §2

JunLZ-Lb1b3 beacon = JunLZ-Lb1b3 beacon (UniProt P0AEX9 27-392 = MBP); assay: fluorescence emission screening (FIG. 11)
Procedure: as §1, §2

JunLZ-Lb3b5 beacon = JunLZ-Lb3b5 beacon (UniProt P0AEX9 27-392 = MBP); assay: fluorescence emission screening (FIG. 11)
Procedure: as §1, §2

JunLZ-Lb2b5 beacon = JunLZ-Lb2b5 beacon (UniProt P0AEX9 27-392 = MBP); assay: fluorescence emission screening (FIG. 11)
Procedure: as §1, §2

Measured: binding result

B1: scrFosLZ (MBP-scrFosLZ, fusion protein of MBP and the scrambled cFos leucine zipper) (other, not shown: large carriers)
chain: GGSGGTDTAQAETDQAEDEKSAAQTEIANALKEKEKAEFILA
notes: Negative control; also called scrambled FosLZ
no binding (tested: 10.0 µM): JunLZ-Sb3b5 beacon | JunLZ-Sb1b4 beacon | JunLZ-Sb1b3 beacon | JunLZ-Lb1b4 beacon | JunLZ-Lb1b3 beacon | JunLZ-Lb3b5 beacon | JunLZ-Lb2b5 beacon
